# Assay results as given in IntAct's records for PubMed 25278935.
# B1: Serine/threonine-protein kinase RsbT (Bacillus subtilis), P42411 (parent)
# chain: MNDQSCVRIMTEWDIVAARQLGRNVAKELGFGTVDQARITTAISELARNIYLYAGKGQIGIEQVADRGKKGLKIIAEDQGPGIPDIRKVMEDGFSTSGGLGAGLPGVKRLMDEFSLNSVAGEGTEIQAIKWLR
# partner: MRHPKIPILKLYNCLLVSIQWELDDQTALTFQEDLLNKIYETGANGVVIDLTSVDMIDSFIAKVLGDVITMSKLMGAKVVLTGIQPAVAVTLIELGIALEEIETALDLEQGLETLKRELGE
# B2: Anti-sigma F factor (Bacillus subtilis), P10728 (parent)
# chain: MKNEMHLEFSALSQNESFARVTVASFIAQLDPTMDELTEIKTVVSEAVTNAIIHGYEENCEGKVYISVTLEDHVVYMTIRDEGLGITDLEEARQPLFTTKPELERSGMGFTIMENFMDDVSIDSSPEMGTTIRLTKHLSKSKALCN
# partner: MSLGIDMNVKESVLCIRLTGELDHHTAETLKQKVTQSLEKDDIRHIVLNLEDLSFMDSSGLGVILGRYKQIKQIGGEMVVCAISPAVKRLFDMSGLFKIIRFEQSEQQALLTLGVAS
# B3: Tyrosine-protein kinase YwqD (Bacillus subtilis), P96716 (parent)
# chain: MALRKNRGSRMQRNVIAMTEPKSLNSEQYRTIRTNIEFASVDRQMKSVMITSACPGEGKSTTAANLAVVFAQQGKKVLLIDADLRKPTVHTAFFLENTVGLTSVLLKKSSMEQAVQASNEKHLDVLTSGPIPPNPAELLSSKWMKELAYEACAAYDMVIFDTPPILAVADAQILGNVADGSVLVISSGKTEKEQAAKAKEALATCKSKLLGAIMNGKKLSKHSEYGYYGTKDNFMQK
# partner: B1 chain
# B4: HPr kinase/phosphorylase (Bacillus subtilis), O34483 (parent)
# chain: MAKVRTKDVMEQFNLELISGEEGINRPITMSDLSRPGIEIAGYFTYYPRERVQLLGKTELSFFEQLPEEEKKQRMDSLCTDVTPAIILSRDMPIPQELIDASEKNGVPVLRSPLKTTRLSSRLTNFLESRLAPTTAIHGVLVDIYGVGVLITGKSGVGKSETALELVKRGHRLVADDCVEIRQEDQDTLVGNAPELIEHLLEIRGLGIINVMTLFGAGAVRSNKRITIVMNLELWEQGKQYDRLGLEEETMKIIDTEITKLTIPVRPGRNLAVIIEVAAMNFRLKRMGLNAAEQFTNKLADVIEDGEQEE
# partner: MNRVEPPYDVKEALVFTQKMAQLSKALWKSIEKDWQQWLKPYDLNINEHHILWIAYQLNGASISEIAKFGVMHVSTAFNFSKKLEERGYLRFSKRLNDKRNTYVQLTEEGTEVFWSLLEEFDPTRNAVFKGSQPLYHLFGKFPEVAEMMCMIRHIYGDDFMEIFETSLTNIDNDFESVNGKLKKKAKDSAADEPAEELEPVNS
# Variants of: B1
# Conditions: with rsbs_bacsu rsbS
row,effect of a mutation on the interaction,Variant
1,disrupting interaction strength,N49A

# Variants of: B2
# Conditions: with sp2aa_bacsu spoIIAA
row,effect of a mutation on the interaction,Variant
1,disrupting interaction strength,N50A

# Variants of: B3
# Conditions: with rsbt_bacsu rsbT
row,effect of a mutation on the interaction,Variant
1,increasing interaction strength,D81A

# Variants of: B4
# Conditions: with hpr_bacsu hpr
row,effect of a mutation on the interaction,Variant
1,disrupting interaction strength,Q53M
